# In paper PMC3518449 (The Biochemical journal, 2012):
# Values joined by “and” are separate entries in the source; they are usually repeats but may differ in a detail not shown here. Identical values can stand only once.
# T1: CYP1A2 (Oryctolagus cuniculus, UniProt P00187)
# T1 chain: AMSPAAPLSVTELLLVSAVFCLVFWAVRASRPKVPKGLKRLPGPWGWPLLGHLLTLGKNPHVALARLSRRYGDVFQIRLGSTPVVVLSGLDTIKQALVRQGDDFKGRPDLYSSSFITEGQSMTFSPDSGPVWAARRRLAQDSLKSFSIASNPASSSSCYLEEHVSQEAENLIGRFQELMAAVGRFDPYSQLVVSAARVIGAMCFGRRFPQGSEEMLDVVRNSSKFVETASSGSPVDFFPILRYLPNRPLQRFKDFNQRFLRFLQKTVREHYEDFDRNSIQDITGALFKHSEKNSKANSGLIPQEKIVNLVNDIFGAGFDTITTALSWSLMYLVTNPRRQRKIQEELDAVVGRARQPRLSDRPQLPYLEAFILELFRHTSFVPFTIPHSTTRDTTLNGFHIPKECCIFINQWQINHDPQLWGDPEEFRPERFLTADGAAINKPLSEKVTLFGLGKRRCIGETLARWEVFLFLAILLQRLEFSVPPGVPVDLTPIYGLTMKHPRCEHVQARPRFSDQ
# Columns and labels:
# cross-linking = biological target: the molecule itself; assay: cross-linking
# CYP1A2 = biological target: T1, CYP1A2; assay: enzyme activity titration
Binder,stoichiometry N (cross-linking),Kd (CYP1A2) [nM]
"Cytochrome P450 1A2 (CYP1A2), isolated from rabbit liver microsomes (enzyme, UniProt P00187 1-516, looked up) MAMSPAAPLSVTELLLVSAVFCLVFWAVRASRPKVPKGLKRLPGPWGWPLLGHLLTLGKNPHVALARLSRRYGDVFQIRLGSTPVVVLSGLDTIKQALVRQGDDFKGRPDLYSSSFITEGQSMTFSPDSGPVWAARRRLAQDSLKSFSIASNPASSSSCYLEEHVSQEAENLIGRFQELMAAVGRFDPYSQLVVSAARVIGAMCFGRRFPQGSEEMLDVVRNSSKFVETASSGSPVDFFPILRYLPNRPLQRFKDFNQRFLRFLQKTVREHYEDFDRNSIQDITGALFKHSEKNSKANSGLIPQEKIVNLVNDIFGAGFDTITTALSWSLMYLVTNPRRQRKIQEELDAVVGRARQPRLSDRPQLPYLEAFILELFRHTSFVPFTIPHSTTRDTTLNGFHIPKECCIFINQWQINHDPQLWGDPEEFRPERFLTADGAAINKPLSEKVTLFGLGKRRCIGETLARWEVFLFLAILLQRLEFSVPPGVPVDLTPIYGLTMKHPRCEHVQARPRFSDQ",2 and 4 and 5 and 6,
POR (protein) MADSHGDTGATMPEAAAQEASVFSMTDVVLFSLIVGLITYWFLFRKKKEEVPEFTKIQAPTSSSVKESSFVEKMKKTGRNIVVFYGSQTGTAEEFANRLSKDAHRYGMRGMAADPEEYDLADLSSLPEINNALAVFCMATYGEGDPTDNAQDFYDWLQETDVDLSGVKYAVFGLGNKTYEHFNAMGKYVDQRLEQLGAQRIFELGMGDDDANLEEDFITWREQFWPAVCEHFGVEATGEESSIRQYELVLHTDIDVAKVYQGEMGRLKSYENQKPPFDAKNPFLATVTTNRKLNQGTERHLMHLELDISDSKIRYESGDHVAVYPANDSALVNQLGEILGADLDVVMSLNNLDEESNKKHPFPCPTSYRTALTYYLDITNPPRTNVLYELAQYAADPAEQEQLRKMASSSGEGKELYLSWVVEARRHILAILQDYPSLRPPIDHLCELLPRLQARYYSIASSSKVHPNSVHICAVAVEYETKAGRLNKGVATSWLRAKEPAGENGGRALVPMFVRKSQFRLPFKATTPVIMVGPGTGVAPFIGFIQERAWLRQQGKEVGETLLYYGCRRAAEDYLYREELAGFQKDGTLSQLNVAFSREQAQKVYVQHLLRRDKEHLWRLIHEGGAHIYVCGDARNMARDVQNTFYDIVAELGAMEHAQAVDYVKKLMTKGRYSLDVWS,,12
